Test results taken from EP4707304A1 (Axcynsis Therapeutics Pte. Ltd., dated 2024).

T1: VLP-hCLDN6 (human) (UniProt P56747)
T1 sequence: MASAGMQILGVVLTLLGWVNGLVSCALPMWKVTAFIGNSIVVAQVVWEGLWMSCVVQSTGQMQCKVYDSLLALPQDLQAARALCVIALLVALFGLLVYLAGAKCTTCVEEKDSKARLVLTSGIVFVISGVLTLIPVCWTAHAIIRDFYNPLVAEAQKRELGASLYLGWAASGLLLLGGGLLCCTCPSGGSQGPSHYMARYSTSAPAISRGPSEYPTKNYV


Legend:
VLP-hCLDN6 (human) [1] = target: T1, VLP-hCLDN6 (human); test: ELISA, coated VLP-hCLDN6, 10 ul antibody sample, HRP-Protein A
VLP-hCLDN6 (human) [2] = target: T1, VLP-hCLDN6 (human); test: ELISA, coated VLP-hCLDN6, 100 ul antibody sample (second well), HRP-Protein A
VLP-hCLDN6 (human) [3] = target: T1, VLP-hCLDN6 (human); test: ELISA, coated VLP-hCLDN6, 10 ul antibody sample (second well), HRP-Protein A
VLP-hCLDN6 (human) [4] = target: T1, VLP-hCLDN6 (human); test: ELISA, coated VLP-hCLDN6, 100 ul antibody sample, HRP-Protein A

Binder | OD450 (VLP-hCLDN6 (human) [1]) | OD450 (VLP-hCLDN6 (human) [2]) | OD450 (VLP-hCLDN6 (human) [3]) | OD450 (VLP-hCLDN6 (human) [4])
humanized antibody hAb-6 (antibody, V domains shown) VH: EVKLVESGGGLVKPGGSLRLSCAASGFTFNSYTMSWVRQAPGKRLEWVVTISSGGGRTYYPDSVKGRFTISRDNAKNTLYLQMSSLRAEDTAVYYCIRGDYRYDGFAYWGQGTLVTVSS VL: DIQMTQSPSSLSASVGDRVTITCRASENIDSYLAWYQQKPGKSPQLLVYASTLLQDGVPSRFSGSRSGTDFTLTISSLQPEDVATYYCQHYYSIPYTFGSGTKLEIK | 0.89 | 1.61 | 1.04 | 1.55
humanized antibody hAb-17 (antibody, V domains shown) VH: EVKLVESGGGLVQPGGSLRLSCAASGFTFNSYTMSWVRQAPGKRLEWVVTISSGGGRTYYPDSVKGRFTISRDNAKNTLYLQMSSLRAEDTAVYYCIRGDYRYDGFAYWGQGTLVTVSS VL: DIQMTQSPSSLSASVGDRVTITCRASENIDSYLAWYQQKPGKSPQLLVYASTLLVDGVPSRFSGSRSGTQFSLTISSLQPEDVARYYCQHYYSIPYTFGSGTKLEIK | 1.6 | 1.78 | 1.72 | 1.93
humanized antibody hAb-7 (antibody, V domains shown) VH: EVKLVESGGGLVKPGGSLRLSCAASGFTFNSYTMSWVRQAPGKRLEWVVTISSGGGRTYYPDSVKGRFTISRDNAKNTLYLQMSSLRAEDTAVYYCIRGDYRYDGFAYWGQGTLVTVSS VL: DIQMTQSPSSLSASVGDRVTITCRASENIDSYLAWYQQKPGKSPQLLVYASTLLQDGVPSRFSGSRSGTQFTLTISSLQPEDVARYYCQHYYSIPYTFGSGTKLEIK | 1.37 | 1.91 | 1.46 | 1.73
humanized antibody hAb-8 (antibody, V domains shown) VH: EVKLVESGGGLVKPGGSLRLSCAASGFTFNSYTMSWVRQAPGKRLEWVVTISSGGGRTYYPDSVKGRFTISRDNAKNTLYLQMSSLRAEDTAVYYCIRGDYRYDGFAYWGQGTLVTVSS VL: DIQMTQSPSSLSASVGDRVTITCRASENIDSYLAWYQQKPGKSPQLLVYASTLLQDGVPSRFSGSRSGTQFTLTISSLQPEDFATYYCQHYYSIPYTFGSGTKLEIK | 1.27 | 1.88 | 1.22 | 1.84
humanized antibody hAb-19 (antibody, V domains shown) VH: EVKLVESGGGLVQPGGSLRLSCAASGFTFNSYTMSWVRQTPAKRLEWVVTISSGGGRTYYPDSVKGRFTISRDNAKNTLYLQMSSLRAEDTAVYYCIRGDYRYDGFAYWGQGTLVTVSS VL: DIQMTQSPSSLSASVGDRVTITCRASENIDSYLAWYQQKPGKSPQLLVYASTLLQDGVPSRFSGSRSGTQFTLTISSLQPEDVARYYCQHYYSIPYTFGSGTKLEIK | 1.62 | 1.79 | 1.57 | 1.7
humanized antibody hAb-16 (antibody, V domains shown) VH: EVKLVESGGGLVQPGGSLRLSCAASGFTFNSYTMSWVRQAPGKRLEWVVTISSGGGRTYYPDSVKGRFTISRDNAKNTLYLQMSSLRAEDTAVYYCIRGDYRYDGFAYWGQGTLVTVSS VL: DIQMTQSPSSLSASVGDRVTITCRASENIDSYLAWYQQKPGKSPQLLVYASTLLQDGVPSRFSGSRSGTQFTLTISSLQPEDFATYYCQHYYSIPYTFGSGTKLEIK | 1.26 | 1.71 | 1.24 | 1.39
humanized antibody hAb-20 (antibody, V domains shown) VH: EVKLVESGGGLVQPGGSLRLSCAASGFTFNSYTMSWVRQTPAKRLEWVVTISSGGGRTYYPDSVKGRFTISRDNAKNTLYLQMSSLRAEDTAVYYCIRGDYRYDGFAYWGQGTLVTVSS VL: DIQMTQSPSSLSASVGDRVTITCRASENIDSYLAWYQQKPGKSPQLLVYASTLLQDGVPSRFSGSRSGTQFTLTISSLQPEDFATYYCQHYYSIPYTFGSGTKLEIK | 1.38 | 1.68 | 1.41 | 1.81
humanized antibody hAb-11 (antibody, V domains shown) VH: EVKLVESGGGLVKPGGSLRLSCAASGFTFNSYTMSWVRQTPAKRLEWVVTISSGGGRTYYPDSVKGRFTISRDNAKNTLYLQMSSLRAEDTAVYYCIRGDYRYDGFAYWGQGTLVTVSS VL: DIQMTQSPSSLSASVGDRVTITCRASENIDSYLAWYQQKPGKSPQLLVYASTLLQDGVPSRFSGSRSGTQFTLTISSLQPEDVARYYCQHYYSIPYTFGSGTKLEIK | 1.41 | 1.8 | 1.54 | 1.81
humanized antibody hAb-22 (antibody, V domains shown) VH: EVKLVESGGGLVKPGGSLRLSCAASGFTFNSYTMSWVRQTPAKRLEWVVTISSGGGRTYYPDSVKGRFTISRDNARNTLYLQMSSLRAEDTAVYYCIRGDYRYDGFAYWGQGTLVTVSS VL: DIQMTQSPSSLSASVGDRVTITCRASENIDSYLAWYQQKPGKSPQLLVYASTLLQDGVPSRFSGSRSGTDFTLTISSLQPEDVATYYCQHYYSIPYTFGSGTKLEIK | 1.12 | 1.65 | 0.96 | 1.63
humanized antibody hAb-14 (antibody, V domains shown) VH: EVKLVESGGGLVQPGGSLRLSCAASGFTFNSYTMSWVRQAPGKRLEWVVTISSGGGRTYYPDSVKGRFTISRDNAKNTLYLQMSSLRAEDTAVYYCIRGDYRYDGFAYWGQGTLVTVSS VL: DIQMTQSPSSLSASVGDRVTITCRASENIDSYLAWYQQKPGKSPQLLVYASTLLQDGVPSRFSGSRSGTDFTLTISSLQPEDVATYYCQHYYSIPYTFGSGTKLEIK | 0.22 | 0.99 | 0.23 | 0.97
humanized antibody hAb-21 (antibody, V domains shown) VH: EVKLVESGGGLVQPGGSLRLSCAASGFTFNSYTMSWVRQTPAKRLEWVVTISSGGGRTYYPDSVKGRFTISRDNAKNTLYLQMSSLRAEDTAVYYCIRGDYRYDGFAYWGQGTLVTVSS VL: DIQMTQSPSSLSASVGDRVTITCRASENIDSYLAWYQQKPGKSPQLLVYASTLLVDGVPSRFSGSRSGTQFSLTISSLQPEDVARYYCQHYYSIPYTFGSGTKLEIK | 2.05 | 2.45 | 1.9 | 2.23
humanized antibody hAb-15 (antibody, V domains shown) VH: EVKLVESGGGLVQPGGSLRLSCAASGFTFNSYTMSWVRQAPGKRLEWVVTISSGGGRTYYPDSVKGRFTISRDNAKNTLYLQMSSLRAEDTAVYYCIRGDYRYDGFAYWGQGTLVTVSS VL: DIQMTQSPSSLSASVGDRVTITCRASENIDSYLAWYQQKPGKSPQLLVYASTLLQDGVPSRFSGSRSGTQFTLTISSLQPEDVARYYCQHYYSIPYTFGSGTKLEIK | 1.39 | 1.8 | 1.47 | 1.78
humanized antibody hAb-12 (antibody, V domains shown) VH: EVKLVESGGGLVKPGGSLRLSCAASGFTFNSYTMSWVRQTPAKRLEWVVTISSGGGRTYYPDSVKGRFTISRDNAKNTLYLQMSSLRAEDTAVYYCIRGDYRYDGFAYWGQGTLVTVSS VL: DIQMTQSPSSLSASVGDRVTITCRASENIDSYLAWYQQKPGKSPQLLVYASTLLQDGVPSRFSGSRSGTQFTLTISSLQPEDFATYYCQHYYSIPYTFGSGTKLEIK | 1.36 | 1.67 | 1.4 | 1.76
humanized antibody hAb-10 (antibody, V domains shown) VH: EVKLVESGGGLVKPGGSLRLSCAASGFTFNSYTMSWVRQTPAKRLEWVVTISSGGGRTYYPDSVKGRFTISRDNAKNTLYLQMSSLRAEDTAVYYCIRGDYRYDGFAYWGQGTLVTVSS VL: DIQMTQSPSSLSASVGDRVTITCRASENIDSYLAWYQQKPGKSPQLLVYASTLLQDGVPSRFSGSRSGTDFTLTISSLQPEDVATYYCQHYYSIPYTFGSGTKLEIK | 1.18 | 1.51 | 1.13 | 1.5
humanized antibody hAb-9 (antibody, V domains shown) VH: EVKLVESGGGLVKPGGSLRLSCAASGFTFNSYTMSWVRQAPGKRLEWVVTISSGGGRTYYPDSVKGRFTISRDNAKNTLYLQMSSLRAEDTAVYYCIRGDYRYDGFAYWGQGTLVTVSS VL: DIQMTQSPSSLSASVGDRVTITCRASENIDSYLAWYQQKPGKSPQLLVYASTLLVDGVPSRFSGSRSGTQFSLTISSLQPEDVARYYCQHYYSIPYTFGSGTKLEIK | 1.71 | 1.94 | 1.57 | 1.84
humanized antibody hAb-18 (antibody, V domains shown) VH: EVKLVESGGGLVQPGGSLRLSCAASGFTFNSYTMSWVRQTPAKRLEWVVTISSGGGRTYYPDSVKGRFTISRDNAKNTLYLQMSSLRAEDTAVYYCIRGDYRYDGFAYWGQGTLVTVSS VL: DIQMTQSPSSLSASVGDRVTITCRASENIDSYLAWYQQKPGKSPQLLVYASTLLQDGVPSRFSGSRSGTDFTLTISSLQPEDVATYYCQHYYSIPYTFGSGTKLEIK | 1.17 | 1.52 | 1.13 | 1.68
humanized antibody hAb-23 (antibody, V domains shown) VH: EVKLVESGGGLVKPGGSLRLSCAASGFTFNSYTMSWVRQTPAKRLEWVVTISSGGGRTYYPDSVKGRFTISRDNARNTLYLQMSSLRAEDTAVYYCIRGDYRYDGFAYWGQGTLVTVSS VL: DIQMTQSPSSLSASVGDRVTITCRASENIDSYLAWYQQKPGKSPQLLVYASTLLQDGVPSRFSGSRSGTQFTLTISSLQPEDVARYYCQHYYSIPYTFGSGTKLEIK | 1.42 | 2.05 | 1.46 | 1.82
humanized antibody hAb-13 (antibody, V domains shown) VH: EVKLVESGGGLVKPGGSLRLSCAASGFTFNSYTMSWVRQTPAKRLEWVVTISSGGGRTYYPDSVKGRFTISRDNAKNTLYLQMSSLRAEDTAVYYCIRGDYRYDGFAYWGQGTLVTVSS VL: DIQMTQSPSSLSASVGDRVTITCRASENIDSYLAWYQQKPGKSPQLLVYASTLLVDGVPSRFSGSRSGTQFSLTISSLQPEDVARYYCQHYYSIPYTFGSGTKLEIK | 1.68 | 2.26 | 1.7 | 1.95
